Measured values: paper PMC10286367

B1: mouse full-length p65-HA [mouse] / glycogen synthase kinase 3β (Gsk3β) [mouse (endogenous in hippocampal tissue)] (parent)
chain 1: MDDLFPLIFPSEPAQASGPYVEIIEQPKQRGMRFRYKCEGRSAGSIPGERSTDTTKTHPTIKINGYTGPGTVRISLVTKDPPHRPHPHELVGKDCRDGYYEADLCPDRSIHSFQNLGIQCVKKRDLEQAISQRIQTNNNPFHVPIEEQRGDYDLNAVRLCFQVTVRDPAGRPLLLTPVLSHPIFDNRAPNTAELKICRVNRNSGSCLGGDEIFLLCDKVQKEDIEVYFTGPGWEARGSFSQADVHRQVAIVFRTPPYADPSLQAPVRVSMQLRRPSDRELSEPMEFQYLPDTDDRHRIEEKRKRTYETFKSIMKKSPFNGPTEPRPPTRRIAVPTRNSTSVPKPAPQPYTFPASLSTINFDEFSPMLLPSGQISNQALALAPSSAPVLAQTMVPSSAMVPLAQPPAPAPVLTPGPPQSLSAPVPKSTQAGEGTLSEALLHLQFDADEDLGALLGNSTDPGVFTDLASVDNSEFQQLLNQGVSMSHSTAEPMLMEYPEAITRLVTGSQRPPDPAPTPLGTSGLPNGLSGDEDFSSIADMDFSALLSQISS
chain 2: MSGRPRTTSFAESCKPVQQPSAFGSMKVSRDKDGSKVTTVVATPGQGPDRPQEVSYTDTKVIGNGSFGVVYQAKLCDSGELVAIKKVLQDKRFKNRELQIMRKLDHCNIVRLRYFFYSSGEKKDEVYLNLVLDYVPETVYRVARHYSRAKQTLPVIYVKLYMYQLFRSLAYIHSFGICHRDIKPQNLLLDPDTAVLKLCDFGSAKQLVRGEPNVSYICSRYYRAPELIFGATDYTSSIDVWSAGCVLAELLLGQPIFPGDSGVDQLVEIIKVLGTPTREQIREMNPNYTEFKFPQIKAHPWTKVFRPRTPPEAIALCSRLLEYTPTARLTPLEACAHSFFDELRDPNVKLPNGRDTPALFNFTTQELSSNPPLATILIPPHARIQAAASPPANATAASDTNAGDRGQTNNAASASASNST

Experiments:
[1] = variants of: B1; assay: co-IP with Gsk3β followed by WB, band quantification; settings: with glycogen synthase kinase 3β (Gsk3β) [mouse (endogenous in hippocampal tissue)]; p65-HA variant co-expressed with Ogt-Flag and Gsk3β; n = 3 independent experiments; parent: 1; read off a plot
[2] = variants of: B1; assay: co-IP with HA (p65) followed by WB, band quantification; settings: with glycogen synthase kinase 3β (Gsk3β) [mouse (endogenous in hippocampal tissue)]; p65-HA variant co-expressed with Ogt-Flag and Gsk3β; n = 3 independent experiments; parent: 1; read off a plot

Variant | response (relative protein level (HA / Gsk3β)) [1] | response (relative protein level (Gsk3β / HA)) [2]
chain 1 S370A | 1 | 1.1
chain 1 S374A | 1.1 | 1

Next, values leading:

response (relative protein level (HA / Gsk3β)) [1] | response (relative protein level (Gsk3β / HA)) [2] | Variant
1 | 1.1 | chain 1 S396A
2.4 | 2.1 | chain 1 S384A
